Two molecules from patent publication US20030078381A1 (VANDERBILT UNIVERSITY, published 2003) can be followed below.

The target of test [1] is T1, secreted human placental alkaline phosphatase (AP) (human, UniProt P05187 23-511).
T1 construct: Control probe, used as conditioned medium; also called AP control
The test is described as follows: quantitative cell surface AP binding assay on transfected Cos cells.

Test [2] concerns the target T2, human IL-22R1, expressed alone on transfected cells (human, UniProt Q8N6P7 16-574).
T2 sequence: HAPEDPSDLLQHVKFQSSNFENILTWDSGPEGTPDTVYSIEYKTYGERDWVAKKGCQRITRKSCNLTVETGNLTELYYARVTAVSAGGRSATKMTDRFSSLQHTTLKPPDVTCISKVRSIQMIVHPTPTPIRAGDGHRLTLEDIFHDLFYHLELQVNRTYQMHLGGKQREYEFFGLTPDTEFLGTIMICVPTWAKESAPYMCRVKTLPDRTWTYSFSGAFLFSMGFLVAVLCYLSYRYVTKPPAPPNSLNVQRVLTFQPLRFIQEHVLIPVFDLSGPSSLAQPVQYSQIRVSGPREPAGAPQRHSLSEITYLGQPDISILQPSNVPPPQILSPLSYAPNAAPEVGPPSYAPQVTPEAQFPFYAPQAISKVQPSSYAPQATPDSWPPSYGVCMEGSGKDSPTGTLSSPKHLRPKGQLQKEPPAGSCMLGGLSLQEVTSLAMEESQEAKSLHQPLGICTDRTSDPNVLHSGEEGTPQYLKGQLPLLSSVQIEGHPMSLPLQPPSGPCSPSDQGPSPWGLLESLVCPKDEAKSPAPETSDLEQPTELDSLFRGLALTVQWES
The description is as above.

For test [3], the target named is T3, human IL-20R1, expressed alone on transfected cells (human, UniProt Q9UHF4 30-553).
T3 sequence: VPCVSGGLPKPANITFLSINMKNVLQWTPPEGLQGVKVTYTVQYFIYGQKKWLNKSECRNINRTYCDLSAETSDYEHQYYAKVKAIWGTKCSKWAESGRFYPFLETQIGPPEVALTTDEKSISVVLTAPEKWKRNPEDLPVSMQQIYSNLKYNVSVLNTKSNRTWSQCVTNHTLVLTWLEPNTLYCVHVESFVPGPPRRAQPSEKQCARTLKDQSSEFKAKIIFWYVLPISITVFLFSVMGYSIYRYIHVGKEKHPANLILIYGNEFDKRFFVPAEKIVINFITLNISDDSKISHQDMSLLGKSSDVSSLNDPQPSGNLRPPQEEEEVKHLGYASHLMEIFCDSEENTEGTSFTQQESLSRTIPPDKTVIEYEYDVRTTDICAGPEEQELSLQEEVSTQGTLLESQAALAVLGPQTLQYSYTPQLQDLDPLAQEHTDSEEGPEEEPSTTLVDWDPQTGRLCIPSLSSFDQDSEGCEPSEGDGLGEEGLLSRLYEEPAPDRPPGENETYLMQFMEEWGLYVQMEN
The description is as above.

Test [4] has as its target T4, IL-22R1/IL-20R2 heterodimeric receptor on co-transfected cells (human, UniProt Q6UXL0 30-311).
T4 construct: whole, on cells; Both subunits were co-transfected into Cos-E5, BHK or Ba/F3 cells; also called IL-24 receptor (IL-22R1/IL-20R2)
T4 sequence 1: T2 sequence
T4 sequence 2: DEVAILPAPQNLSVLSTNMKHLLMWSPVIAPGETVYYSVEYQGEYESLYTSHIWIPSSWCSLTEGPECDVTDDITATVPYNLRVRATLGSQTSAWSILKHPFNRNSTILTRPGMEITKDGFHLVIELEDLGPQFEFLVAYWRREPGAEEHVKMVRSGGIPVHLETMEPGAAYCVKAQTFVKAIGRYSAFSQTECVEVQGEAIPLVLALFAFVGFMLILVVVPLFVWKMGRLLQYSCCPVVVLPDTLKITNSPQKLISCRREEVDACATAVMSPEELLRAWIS
Kind of test: in situ cell surface AP staining of transfected Cos cells. An excerpt:
(§1) FIG. 3C illustrates cell surface staining assay for the IL-24 receptor binding. Cos-E5 cells transfected with either the IL-20R1, IL-22R1 and IL20R2 expression vector alone or in pairs were stained for the cell surface-bound IL-24-AP activity and viewed under a light microscope (20× magnification) without phase contrast.
(§2) Based on published data and database searches of GenBank (NCBI), only three R1 and two R2 types of the IL-10 family of receptor subunits can be identified. The three R1 subunits are IL-10R1, IL-20R1 and IL-22R1, whereas the two R2 subunits are IL-20R2 and IL-1OR2, the latter of which is also the second receptor subunit for IL-22. Thus, the IL-24 receptor could be a heterodimer of a combination of the known R1 and R2 receptors. […] The quantitative cell surface binding assays were carried out with Cos cells after transfecting plasmids over-expressing IL-10R2, IL-20R1, IL-22R1 and IL-20R2 individually or in all four R1/R2 combinations (FIG. 3B). […] Using AP staining assays, the quantitative IL-24-AP binding data was confirmed (FIG. 3C). Specific cell surface staining was detected with IL-24-AP when Cos cells were transiently transfected with […] (FIG. 3C).

Test [5] addresses T5, IL-20 receptor (IL-20R1/IL-20R2) heterodimeric receptor on co-transfected cells (human, UniProt Q6UXL0 30-311).
T5 construct: whole, on cells; Both subunits were co-transfected into Cos-E5, BHK or Ba/F3 cells
T5 sequence 1: T3 sequence
T5 sequence 2: T4 sequence 2
Described as above.
Text: as §1, §2

T1 sequence (P05187 23-511): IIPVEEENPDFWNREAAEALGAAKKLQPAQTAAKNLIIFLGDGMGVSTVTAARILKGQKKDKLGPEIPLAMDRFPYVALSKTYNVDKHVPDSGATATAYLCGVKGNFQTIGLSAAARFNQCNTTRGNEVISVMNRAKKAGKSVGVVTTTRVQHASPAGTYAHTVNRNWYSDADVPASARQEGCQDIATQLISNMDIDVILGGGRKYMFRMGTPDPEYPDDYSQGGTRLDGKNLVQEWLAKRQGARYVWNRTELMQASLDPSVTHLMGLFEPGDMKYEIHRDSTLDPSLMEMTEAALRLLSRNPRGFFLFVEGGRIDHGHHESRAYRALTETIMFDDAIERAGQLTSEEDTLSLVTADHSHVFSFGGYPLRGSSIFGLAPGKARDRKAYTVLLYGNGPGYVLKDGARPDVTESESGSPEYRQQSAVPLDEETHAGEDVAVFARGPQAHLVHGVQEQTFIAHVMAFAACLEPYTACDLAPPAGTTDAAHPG

B1: human IL-20R2, expressed alone on transfected cells (receptor, UniProt Q6UXL0 30-311, looked up)
chain: T4 sequence 2
notes: whole, on cells
Consider B1, for which the binding result in test [1] is on record as “no binding”.

B2: human IL-24-AP fusion protein (ligand, UniProt Q13007 52-206, looked up)
chain: QEFHFGPCQVKGVVPQKLWEAFWAVKDTMQAQDNITSARLLQQEVLQNVSDAESCYLVHTLLEFYLKTVFKNYHNRTVEVRTLKSFSTLANNFVLIVSQLQPSQENEMFSIRDSAHRRFLLFRRAFKQLDVEAALTKALGEVDILLTWMQKFYKL
notes: Used as conditioned medium; also called Mob-5-alkaline phosphatase fusion protein; not shown: secreted human placental alkaline phosphatase (AP)
For the molecule B2, the binding result in test [2] was “no binding”; in test [3], “no binding”; in test [4], “binds”; in test [5], “binds”.
